In article PMC2765250 (Vaccine, 2009):

Target: purified rhesus macaque MHC class I molecule Mamu-B*17 with human beta2-microglobulin (rhesus macaque | human)
Assay: radioligand binding

| Binder | IC50 [µM] |
| --- | --- |
| SSPLELFML [VACV-WR peptide 51P (SSPLELFML), ORF E9L] | 11.8 |
| LTIEAIENYF [VACV-WR peptide 71NP (LTIEAIENYF), ORF L4R] | 8.77 |
